Results from patent US20220380456A1 (UNITED KINGDOM RESEARCH AND INNOVATION, published 2022).

T1: His6-TEV-MSP1D1 (CA15914) (human Apo A-I derived, engineered, biotinylated with EZ-link NHS-Biotin for the BLI experiment only)
T1 construct: Membrane scaffold protein; The entry holds the 6xHis tag, the TEV cleavage site and MSP1D1; Tested in Apo-state (lipid free) and in Nanodisc-state (POPC nanodisc, two MSP1D1 per nanodisc)
T1 chain: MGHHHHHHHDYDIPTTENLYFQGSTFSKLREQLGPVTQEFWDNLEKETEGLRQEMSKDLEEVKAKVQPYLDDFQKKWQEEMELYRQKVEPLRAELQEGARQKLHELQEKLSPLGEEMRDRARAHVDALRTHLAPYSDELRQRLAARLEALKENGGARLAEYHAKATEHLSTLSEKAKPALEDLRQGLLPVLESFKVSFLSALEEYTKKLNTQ


What was measured:
[1] = target: T1, His6-TEV-MSP1D1 (CA15914); assay: ELISA, periplasmic extract on coated MSP (1 µg/mL in 100 µL, Apo- and Nanodisc-state), EPEA-tag detection, OD405 after 1 h
Procedure: (§1) Nanobodies were detected after 1 h (FIG. 2A) and overnight (FIG. 2B) subsequent incubation with a biotinylated CaptureSelect antibody and developed with a Streptavidin Alkaline Phosphatase conjugate.

[2] = target: T2, His6-TEV-MSP2N2 (CA15915) (human Apo A-I derived, engineered, UniProt P02647 79-267, limits assumed); assay: as above
T2 construct: Membrane scaffold protein; The entry holds the 6xHis tag, the TEV cleavage site and MSP2N2; Tested in Apo-state, in Nanodisc-state, and as the belt of nanodiscs loaded with GABAAR-β3
Procedure: as §1

[3] = target: T1, His6-TEV-MSP1D1 (CA15914); assay: ELISA, purified MegaBody on coated MSP (Apo- or Nanodisc-state) vs non-coated wells, A405
[4] = target: T2, His6-TEV-MSP2N2 (CA15915); assay: as above
[5] = target: T2, His6-TEV-MSP2N2 (CA15915); assay: ELISA, periplasmic extract on coated MSP (1 µg/mL in 100 µL, Apo- and Nanodisc-state), EPEA-tag detection, OD405 after overnight
Procedure: as §1

Binder	binding result [1]	binding result [2]	fold ELISA signal over no MSP [3] [fold]	fold ELISA signal over no MSP [4] [fold]	binding result [5]
MP1521_B1 Nanobody (CA15895) (VHH, Entry includes 6xHis and EPEA tags; tested as periplasmic extract) VHH: QVQLVESGGGLVQPGGSLRLSCTASGFSLSSSYMDWVRQAPGKGIEWVSTISPGGRITYAVSVEGRFTLSRDNAKNTLSLQMNELKPEDTAVYYCRRLGEKGQGTQVTVSS	binds	binds			
MbNbC10^c7HopQ MegaBody (CA15905) (other, MegaBody: c7HopQ scaffold inserted in the first β-turn of Nanobody MP1522_C10; Entry includes 6xHis and EPEA tags) QVQLVESGGGLVQTKTTTSVIDTTNDAQNLLTQAQTIVNTLKDYCPILIAKSSSSNGGTNNANTPSWQTAGGGKNSCATFGAEFSAASDMINNAQKIVQETQQLSANQPKNITQPHNLNLNSPSSLTALAQKMLKNAQSQAEILKLANQVESDFNKLSSGHLKDYIGKCDASAISSANMTMQNQKNNWGNGCAGVEETQSLLKTSAADFNNQTPQINQAQNLANTLIQELGNNTYEQLSRLLTNDNGTNSKTSAQAINQAVNNLNERAKTLAGGTTNSPAYQATLLALRSVLGLWNSMGYAVICGGYTKSPGENNQKDFHYTDENGNGTTINCGGSTNSNGTHSYNGTNTLKADKNVSLSIEQYEKIHEAYQILSKALKQAGLAPLNSKGEKLEAHVTTSKYGSLRLSCAASGRTSGSYAIGWFRQAPGKEREFAAAISFTAGVTYYSNSVKGRFTISRDSAKNTAYLQMNTLKPEDTAVYYCATLPSLVLILTAKPNIGYWGQGTQVTVSSHHHHHHEPEA			≥ 4	≥ 4	
MbNbB4^c7HopQ MegaBody (CA15907) (other, MegaBody: c7HopQ scaffold inserted in the first β-turn of Nanobody MP1521_B4; Entry includes 6xHis and EPEA tags) QVQLVESGGGLVQTKTTTSVIDTTNDAQNLLTQAQTIVNTLKDYCPILIAKSSSSNGGTNNANTPSWQTAGGGKNSCATFGAEFSAASDMINNAQKIVQETQQLSANQPKNITQPHNLNLNSPSSLTALAQKMLKNAQSQAEILKLANQVESDFNKLSSGHLKDYIGKCDASAISSANMTMQNQKNNWGNGCAGVEETQSLLKTSAADFNNQTPQINQAQNLANTLIQELGNNTYEQLSRLLTNDNGTNSKTSAQAINQAVNNLNERAKTLAGGTTNSPAYQATLLALRSVLGLWNSMGYAVICGGYTKSPGENNQKDFHYTDENGNGTTINCGGSTNSNGTHSYNGTNTLKADKNVSLSIEQYEKIHEAYQILSKALKQAGLAPLNSKGEKLEAHVTTSKYGSLRLSCAASKSFFNIYDLAWYRQAPGKQRELVASITKVGSTNYADSVKGRFTTSRDNAKKTVYLQMNSLKPEDTAVYYCNLVSPGGVYNYWGQGTQVTVSSHHHHHHEPEA			≥ 4	≥ 4	
MbNbB1^c7HopQ MegaBody (CA15908) (other, MegaBody: c7HopQ scaffold inserted in the first β-turn of Nanobody MP1521_B1; Entry includes 6xHis and EPEA tags) QVQLVESGGGLVQTKTTTSVIDTTNDAQNLLTQAQTIVNTLKDYCPILIAKSSSSNGGTNNANTPSWQTAGGGKNSCATFGAEFSAASDMINNAQKIVQETQQLSANQPKNITQPHNLNLNSPSSLTALAQKMLKNAQSQAEILKLANQVESDFNKLSSGHLKDYIGKCDASAISSANMTMQNQKNNWGNGCAGVEETQSLLKTSAADFNNQTPQINQAQNLANTLIQELGNNTYEQLSRLLTNDNGTNSKTSAQAINQAVNNLNERAKTLAGGTTNSPAYQATLLALRSVLGLWNSMGYAVICGGYTKSPGENNQKDFHYTDENGNGTTINCGGSTNSNGTHSYNGTNTLKADKNVSLSIEQYEKIHEAYQILSKALKQAGLAPLNSKGEKLEAHVTTSKYGSLRLSCTASGFSLSSSYMDWVRQAPGKGIEWVSTISPGGRITYAVSVEGRFTLSRDNAKNTLSLQMNELKPEDTAVYYCRRLGEKGQGTQVTVSSHHHHHHEPEA			≥ 4	≥ 4	
MP1521_F3 Nanobody (CA15894) (VHH, Entry includes 6xHis and EPEA tags; tested as periplasmic extract; also called Nb F3) VHH: QVQLVESGGGLVQPGGSLRLSCAASGSGFGPNVMGWYRQAPGKRRELVATINRIGNINYGDSVKGRFTLSREIAVNTVYLQMNSLKPEDAANYYCYAAKYGVDYWGKGTQVTVSS	binds	binds			
MbNbE1^c7HopQ MegaBody (CA15909) (other, MegaBody: c7HopQ scaffold inserted in the first β-turn of Nanobody MP1521_E1; Entry includes 6xHis and EPEA tags) QVQLVESGGGLVQTKTTTSVIDTTNDAQNLLTQAQTIVNTLKDYCPILIAKSSSSNGGTNNANTPSWQTAGGGKNSCATFGAEFSAASDMINNAQKIVQETQQLSANQPKNITQPHNLNLNSPSSLTALAQKMLKNAQSQAEILKLANQVESDFNKLSSGHLKDYIGKCDASAISSANMTMQNQKNNWGNGCAGVEETQSLLKTSAADFNNQTPQINQAQNLANTLIQELGNNTYEQLSRLLTNDNGTNSKTSAQAINQAVNNLNERAKTLAGGTTNSPAYQATLLALRSVLGLWNSMGYAVICGGYTKSPGENNQKDFHYTDENGNGTTINCGGSTNSNGTHSYNGTNTLKADKNVSLSIEQYEKIHEAYQILSKALKQAGLAPLNSKGEKLEAHVTTSKYGSLRLSCAASGTITRSPTMSWARQAPGRQREWVTSILGTGRTDYADSVKGRFTISRDNANNTVYLQMNNLKPEDSAVYYCYTVLNGRPSWGQGTQVTVSSHHHHHHEPEA			≥ 4	≥ 4	
MP1521_B4 Nanobody (CA15893) (VHH, Entry includes 6xHis and EPEA tags; tested as periplasmic extract) VHH: QVQLVESGGGLVQPGGSLRLSCAASKSFFNIYDLAWYRQAPGKQRELVASITKVGSTNYADSVKGRFTTSRDNAKKTVYLQMNSLKPEDTAVYYCNLVSPGGVYNYWGQGTQVTVSS	binds	binds			
MP1521_G9 Nanobody (CA15884) (VHH, Entry includes 6xHis and EPEA tags; tested as periplasmic extract) VHH: QVQLVESGGGSVQAGGSLRLSCAASGRTFSTYRMGWFRQAPGKEREFVAGWNSINIYYADSVKGRFTISGDNAKSTVYLQMNSLKPEDTAVYYCAARGLGQTEYNYWGQGTQVTVSS	binds				binds
MP1522_B9 Nanobody (CA15888) (VHH, Entry includes 6xHis and EPEA tags; tested as periplasmic extract) VHH: QVQLVESGGGLVQAGGSLRLSCVRSARTFGSVAMGWFRQAPGKEREFVTAIDWSGSNTLYADSVKGRFTISRDNAKNTVYLQMNSLKPDDTAVYYCAASRRVVVTTSDFDSWGQGTQVTVSS	binds	binds			
MP1521_E4 Nanobody (CA15889) (VHH, Entry includes 6xHis and EPEA tags; tested as periplasmic extract) VHH: QVQLVESGGGLVQAGGSLRLSCAASGRTFGSTFMGWFRQAPGKERDFVASITWNRGLTTYADSVKGRFTISRDSAKNTVDLQMNNLKPEDTAVYYCVLGMGTSFASWGQGTQVTVSS	binds	binds			
MP1521_B9 Nanobody (CA15883) (VHH, Entry includes 6xHis and EPEA tags; tested as periplasmic extract) VHH: QVQLVESGGGLVQAGGSLRLSCAASGRTLCSIPMGWFRQAPGKEREFVAAIRWSGGSTYYADSVKGRFSISKDNAKNTVYLQMNNLKPEDTATYYCASAAPYSSWSRGLEYDYWGQGTQVTVSS	binds	binds			
MP1521_E1 Nanobody (CA15896) (VHH, Entry includes 6xHis and EPEA tags; tested as periplasmic extract) VHH: QVQLVESGGGLVQPGGSLRLSCAASGTITRSPTMSWARQAPGRQREWVTSILGTGRTDYADSVKGRFTISRDNANNTVYLQMNNLKPEDSAVYYCYTVLNGRPSWGQGTQVTVSS	binds	binds			
MP1522_A5 Nanobody (CA15892) (VHH, Entry includes 6xHis and EPEA tags; tested as periplasmic extract) VHH: QVQLVESGGGLVQPGGSLRLSCAASGFAFSNSYMSWVRQAPGKGPEWVSSISPSAWIITHGDSVKGRFTISRDNAKNTLYLQMNHLKPEDAALYYCARRQGYDGYVPSRDYWGQGTQVTVSS	binds	binds			
MP1521_H5 Nanobody (CA15890) (VHH, Entry includes 6xHis and EPEA tags; tested as periplasmic extract) VHH: QVQLVESGGGLVQPGGSLKLSCAASGFTFSTYSMSWVRQAPGKGLEWVSRILTDGGTTSYPDSVKGRFTISRDNAKNTLYLQMNNLKPEDTAVYYCARGWPSDGYSGGYRGQGTQVTVSS	binds	binds			
MbNbA5^c7HopQ MegaBody (CA15906) (other, MegaBody: c7HopQ scaffold inserted in the first β-turn of Nanobody MP1522_A5; Entry includes 6xHis and EPEA tags) QVQLVESGGGLVQTKTTTSVIDTTNDAQNLLTQAQTIVNTLKDYCPILIAKSSSSNGGTNNANTPSWQTAGGGKNSCATFGAEFSAASDMINNAQKIVQETQQLSANQPKNITQPHNLNLNSPSSLTALAQKMLKNAQSQAEILKLANQVESDFNKLSSGHLKDYIGKCDASAISSANMTMQNQKNNWGNGCAGVEETQSLLKTSAADFNNQTPQINQAQNLANTLIQELGNNTYEQLSRLLTNDNGTNSKTSAQAINQAVNNLNERAKTLAGGTTNSPAYQATLLALRSVLGLWNSMGYAVICGGYTKSPGENNQKDFHYTDENGNGTTINCGGSTNSNGTHSYNGTNTLKADKNVSLSIEQYEKIHEAYQILSKALKQAGLAPLNSKGEKLEAHVTTSKYGSLRLSCAASGFAFSNSYMSWVRQAPGKGPEWVSSISPSAWIITHGDSVKGRFTISRDNAKNTLYLQMNHLKPEDAALYYCARRQGYDGYVPSRDYWGQGTQVTVSSHHHHHHEPEA			≥ 4	≥ 4	
MP1522_C10 Nanobody (CA15891) (VHH, Entry includes 6xHis and EPEA tags; tested as periplasmic extract) VHH: QVQLVESGGGLVQAGGSLRLACAASGRTSGSYAIGWFRQAPGKEREFAAAISFTAGVTYYSNSVKGRFTISRDSAKNTAYLQMNTLKPEDTAVYYCATLPSLVLILTAKPNIGYWGQGTQVTVSS	binds	binds			
